In patent publication US20240209099A1 (SUZHOU TRANSCENTA THERAPEUTICS, published 2024):

What was measured:
[1] = target: T1, Recombinant Human VEGFR2/KDR Protein, His tag (hVEGFR2-his) (human, UniProt P35968 20-764); experiment: ELISA, human VEGFR2-his coated, anti-human Fc-HRP; antibody made in CHO cells
T1 construct: Expressed in HEK293, bought from ACRO Biosystems; also called human VEGFR2-his; Human VEGFR2/KDR-His

[2] = target: T1, Recombinant Human VEGFR2/KDR Protein, …; experiment: competition ELISA: VEGF-A coated (0.25 ug/ml), antibody titrated together with 1 ug/ml human VEGFR2, detection with mouse anti-VEGFR2 serum and anti-mouse Fc-HRP; blocked ligand VEGF-A
Procedure: (§1) For this assay, 0.25 μg/ml VEGF-A was coated on ELISA plate before a mixture of chimeric antibodies and VEGFR2 were added. To detect free VEGF-A (not bind to VEGFR2), 1:1000 diluted mouse serum (mouse previous immunized with human VEGFR2) were added and HRP conjugated goat anti-mouse Fc antibody was used as secondary antibody.
(§2) Same protocol of Example 10. Briefly, 0.25 μg/ml VEGF-A was coated overnight at 4° C. After blocking, serial diluted 54-H2L1, 48-H3L1, Ramucirumab and 1 μg/ml human VEGFR2 or rhesus VEGFR2 were added at the same time for 2 hour-incubation. After wash, mouse serum containing polyclone VEGFR2 antibody and HRP conjugated goat anti-mouse Fc antibody were added for detection of free VEGF-A coated on the plates (see FIGS. 13A and 13B).

[3] = target: T1, Recombinant Human VEGFR2/KDR Protein, …; experiment: ELISA, hVEGFR2-his coated, anti-human Fc-HRP; antibody made in 293T cells
Procedure: Same protocol of Example 4 except using HRP conjugated goat anti-human Fc antibody as secondary antibody. Binding to hVEGFR2-his and rhesus VEGFR2-his (Acrobiosystems, Cat #VE2-C52H3) were also analyzed head-to-head.
Same protocol of Example 9.

[4] = target: T2, Recombinant Rhesus macaque VEGFR2/KDR Protein, His tag (rhesus macaque); experiment: competition ELISA: VEGF-A coated (0.25 ug/ml), antibody titrated together with 1 ug/ml rhesus VEGFR2, detection with mouse anti-VEGFR2 serum and anti-mouse Fc-HRP; blocked ligand VEGF-A
T2 construct: Expressed in HEK293, bought from ACRO Biosystems; also called rhesus VEGFR2-his; rhesus VEGFR2
T2 chain: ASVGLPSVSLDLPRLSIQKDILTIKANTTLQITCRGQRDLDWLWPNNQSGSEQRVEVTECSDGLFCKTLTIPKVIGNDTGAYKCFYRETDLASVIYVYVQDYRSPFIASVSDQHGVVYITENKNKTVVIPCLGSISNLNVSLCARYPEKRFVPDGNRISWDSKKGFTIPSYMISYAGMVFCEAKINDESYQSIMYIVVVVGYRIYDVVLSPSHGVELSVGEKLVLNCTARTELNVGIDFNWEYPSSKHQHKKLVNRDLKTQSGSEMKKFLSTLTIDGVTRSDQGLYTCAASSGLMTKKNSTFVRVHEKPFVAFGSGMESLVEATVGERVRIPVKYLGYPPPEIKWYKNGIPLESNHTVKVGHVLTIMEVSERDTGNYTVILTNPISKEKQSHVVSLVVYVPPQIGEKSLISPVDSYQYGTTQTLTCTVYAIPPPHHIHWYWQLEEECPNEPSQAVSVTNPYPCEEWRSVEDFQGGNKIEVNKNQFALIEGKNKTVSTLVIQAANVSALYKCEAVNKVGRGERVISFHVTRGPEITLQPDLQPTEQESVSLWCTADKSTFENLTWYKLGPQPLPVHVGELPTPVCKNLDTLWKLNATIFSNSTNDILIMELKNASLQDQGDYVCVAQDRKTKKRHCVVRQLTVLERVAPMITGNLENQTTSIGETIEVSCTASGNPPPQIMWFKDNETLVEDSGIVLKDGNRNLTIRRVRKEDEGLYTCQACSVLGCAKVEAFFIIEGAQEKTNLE
Procedure: as §1, §2

EC50 [1]: 0.00755 µg/mL
IC50 [2]: 0.654 µg/mL
EC50 [3]: 0.0288 µg/mL
IC50 [4]: 0.805 µg/mL
B1: 54-H2L1 (humanized Mab54) (antibody, human IgG1, V domains shown)
VH: EVQLVESGGGLVKPGGSLRLSCAASGFTFSMYGMSWVRQAPGKRLEWVASISIGGSYTYYADSVKGRFTISRDNAKNTLYLQMNSLRAEDTAVYYCARELDGNYDYWGQGTTLTVSS
VL: DIVITQDELSLPVTFGESVSISCRSSKSLLYKDGKTYLNWFLQRPGQSPQLLIYLMSTRASGVSDRFSGSGSGTDFTLKISRVEAEDVGIYYCQQLVEYPFTFGSGTKLEIK
notes: also called 54-H2L1 (CHO); humanized 54 variant H2L1
